Experimental data: US20220162312A1 (WUXI BIOLOGICS IRELAND, published 2022)
Changes are numbered by the printed parent chain. In names and notes the source's numbering stands.

T1: CD20 on Raji cells (CD20+/CD3- cells) (human, UniProt P11836 1-297)
T1 sequence (looked up): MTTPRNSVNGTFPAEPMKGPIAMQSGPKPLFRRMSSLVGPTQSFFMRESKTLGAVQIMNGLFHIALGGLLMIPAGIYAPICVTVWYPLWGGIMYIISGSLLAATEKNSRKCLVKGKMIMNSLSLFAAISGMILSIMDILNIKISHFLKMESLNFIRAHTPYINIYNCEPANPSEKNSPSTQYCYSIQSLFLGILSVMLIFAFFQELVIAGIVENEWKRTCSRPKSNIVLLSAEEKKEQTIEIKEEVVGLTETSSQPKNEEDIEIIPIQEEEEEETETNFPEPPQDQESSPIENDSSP

B1: W3278-U2T3.F18R-1.uIgG4.SP (bispecific antibody)
heavy 1: QVQLQQPGAELVKPGASVKMSCKASGYTFTSYNMHWVKQTPGRGLEWIGAIYPGNGDTSYNQKFKGKATLTADKSSSTAYMQLSSLTSEDSAVYYCARSTYYGGDWYFNVWGAGTTVTVSAASTKGPSVFPLAPCSRSTSESTAALGCLVKDYFPEPVTVSWNSGALTSGVHTFPAVLQSSGLYSLSSVVTVPSSSLGTKTYTCNVDHKPSNTKVDKRVGGGGSGGGGSQVQLVQSGAEVKKPGSSVKVSCKASGFAFTDYYIHWVRQAPGQGLEWMGWISPGNVNTKYNENFKGRVTITADKSTSTAYMELSSLRSEDTAVYYCARDGYSLYYFDYWGQGTLVTVLEDLKNVFPPEVAVFEPSEAEISHTQKATLVCLATGFYPDHVELSWWVNGKEVHSGVCTDPQPLKEQPALQDSRYALSSRLRVSATFWQNPRNHFRCQVQFYGLSENDEWTQDRAKPVTQIVSAEAWGRYGPPCPPCPAPEFLGGPSVFLFPPKPKDTLMISRTPEVTCVVVDVSQEDPEVQFNWYVDGVEVHNAKTKPREEQFNSTYRVVSVLTVLHQDWLNGKEYKCKVSNKGLPSSIEKTISKAKGQPREPQVYTLPPCQEEMTKNQVSLWCLVKGFYPSDIAVEWESNGQPENNYKTTPPVLDSDGSFFLYSRLTVDKSRWQEGNVFSCSVMHEALHNHYTQKSLSLSLG
heavy 2: QVQLQQPGAELVKPGASVKMSCKASGYTFTSYNMHWVKQTPGRGLEWIGAIYPGNGDTSYNQKFKGKATLTADKSSSTAYMQLSSLTSEDSAVYYCARSTYYGGDWYFNVWGAGTTVTVSAASTKGPSVFPLAPCSRSTSESTAALGCLVKDYFPEPVTVSWNSGALTSGVHTFPAVLQSSGLYSLSSVVTVPSSSLGTKTYTCNVDHKPSNTKVDKRVESKYGPPCPPCPAPEFLGGPSVFLFPPKPKDTLMISRTPEVTCVVVDVSQEDPEVQFNWYVDGVEVHNAKTKPREEQFNSTYRVVSVLTVLHQDWLNGKEYKCKVSNKGLPSSIEKTISKAKGQPREPQVCTLPPSQEEMTKNQVSLSCAVKGFYPSDIAVEWESNGQPENNYKTTPPVLDSDGSFFLVSRLTVDKSRWQEGNVFSCSVMHEALHNHYTQKSLSLSLG
light 1: QIVLSQSPAILSASPGEKVTMTCRASSSVSYIHWFQQKPGSSPKPWIYATSNLASGVPVRFSGSGSGTSYSLTISRVEAEDAATYYCQQWTSNPPTFGGGTKLEIKRTVAAPSVFIFPPSDEQLKSGTASVVCLLNNFYPREAKVQWKVDNALQSGNSQESVTEQDSKDSTYSLSSTLTLSKADYEKHKVYACEVTHQGLSSPVTKSFNRGEC
light 2: DIVMTQSPDSLAVSLGERATINCKSSQSLLNSRTRKNYLAWYQQKPGQPPKLLIYWASTRQSGVPDRFSGSGSGTDFTLTISSLQAEDVAVYYCTQSHTLRTFGGGTKVEIKPDIQNPDPAVYQLRDSKSSDKSVCLFTDFDSQTQVSQSKDSDVYITDKCVLDMRSMDFKSNSAVAWSQKSDFACANAFQNSIIPEDTFFPSPESS
B2: W3278-U3T2.F18R-1.uIgG4.SP (bispecific antibody)
heavy 1: EVQLVESGGGLVQPGRSLRLSCAASGFTFNDYAMHWVRQAPGKGLEWVSTISWNSGSIGYADSVKGRFTISRDNAKKSLYLQMNSLRAEDTALYYCAKDIQYGNYYYGMDVWGQGTTVTVSSASTKGPSVFPLAPCSRSTSESTAALGCLVKDYFPEPVTVSWNSGALTSGVHTFPAVLQSSGLYSLSSVVTVPSSSLGTKTYTCNVDHKPSNTKVDKRVGGGGSGGGGSQVQLVQSGAEVKKPGSSVKVSCKASGYSFTTYYIHWVRQAPGQGLEWMGWIFPGNDNIKYSEKFKGRVTITADKSTSTAYMELSSLRSEDTAVYYCAIDSVSIYYFDYWGQGTLVTVLEDLKNVFPPEVAVFEPSEAEISHTQKATLVCLATGFYPDHVELSWWVNGKEVHSGVCTDPQPLKEQPALQDSRYALSSRLRVSATFWQNPRNHFRCQVQFYGLSENDEWTQDRAKPVTQIVSAEAWGRYGPPCPPCPAPEFLGGPSVFLFPPKPKDTLMISRTPEVTCVVVDVSQEDPEVQFNWYVDGVEVHNAKTKPREEQFNSTYRVVSVLTVLHQDWLNGKEYKCKVSNKGLPSSIEKTISKAKGQPREPQVYTLPPCQEEMTKNQVSLWCLVKGFYPSDIAVEWESNGQPENNYKTTPPVLDSDGSFFLYSRLTVDKSRWQEGNVFSCSVMHEALHNHYTQKSLSLSLG
heavy 2: EVQLVESGGGLVQPGRSLRLSCAASGFTFNDYAMHWVRQAPGKGLEWVSTISWNSGSIGYADSVKGRFTISRDNAKKSLYLQMNSLRAEDTALYYCAKDIQYGNYYYGMDVWGQGTTVTVSSASTKGPSVFPLAPCSRSTSESTAALGCLVKDYFPEPVTVSWNSGALTSGVHTFPAVLQSSGLYSLSSVVTVPSSSLGTKTYTCNVDHKPSNTKVDKRVESKYGPPCPPCPAPEFLGGPSVFLFPPKPKDTLMISRTPEVTCVVVDVSQEDPEVQFNWYVDGVEVHNAKTKPREEQFNSTYRVVSVLTVLHQDWLNGKEYKCKVSNKGLPSSIEKTISKAKGQPREPQVCTLPPSQEEMTKNQVSLSCAVKGFYPSDIAVEWESNGQPENNYKTTPPVLDSDGSFFLVSRLTVDKSRWQEGNVFSCSVMHEALHNHYTQKSLSLSLG
light 1: not shown
light 2: not shown
light 3: B1 light 2 with Q61K, H98F, T99I
notes: Human IgG4 (S228P) knobs-into-holes, same F18R-1 format as m3, so L1 probably stands twice; also called W3278-U3T2.F18R-1.ulgG4.SP

Key:
[1] = target: T1, CD20 on Raji cells (CD20+/CD3- cells); assay: cell-based or functional assay
[2] = target: T1, CD20 on Raji cells (CD20+/CD3- cells); assay: cell-based or functional assay; remark: listed apart in the source
[3] = target: T1, CD20 on Raji cells (CD20+/CD3- cells); assay: cell-based or functional assay; remark: listed apart in the source
[4] = target: T1, CD20 on Raji cells (CD20+/CD3- cells); assay: cell-based or functional assay; remark: listed apart in the source
[5] = target: T2, CD3 on Jurkat cells (CD3+/CD20- cells) (human, UniProt P07766 23-207; P04234 22-171; P09693 23-182); assay: flow cytometry on Jurkat cells (CD3+/CD20-)
T2 construct: whole, on cells; also called human CD3; Jurkat 2B8
T2 sequence (P07766 23-207, chain 1 of 3): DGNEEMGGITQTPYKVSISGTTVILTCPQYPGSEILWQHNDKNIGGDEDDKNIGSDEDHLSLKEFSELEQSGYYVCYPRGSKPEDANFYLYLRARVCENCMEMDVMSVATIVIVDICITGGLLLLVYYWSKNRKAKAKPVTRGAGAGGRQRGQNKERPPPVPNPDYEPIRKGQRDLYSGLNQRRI
T2 sequence (P04234 22-171, chain 2 of 3): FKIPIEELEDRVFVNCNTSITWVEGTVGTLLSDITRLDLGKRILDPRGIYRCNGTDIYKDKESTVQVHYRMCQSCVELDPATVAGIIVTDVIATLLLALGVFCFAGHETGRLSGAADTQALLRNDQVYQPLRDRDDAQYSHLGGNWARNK
T2 sequence (P09693 23-182, chain 3 of 3): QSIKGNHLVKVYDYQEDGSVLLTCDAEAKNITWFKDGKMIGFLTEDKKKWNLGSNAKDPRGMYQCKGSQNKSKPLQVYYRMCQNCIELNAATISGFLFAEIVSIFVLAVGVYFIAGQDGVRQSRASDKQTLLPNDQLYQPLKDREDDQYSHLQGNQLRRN
Method: (§1) The binding of W3278 BsAb to target cells was determined by flow cytometry. Briefly, 1×10⁵/well of target cells (CD3+/CD20− cells or CD20+/CD3− cells) were incubated with serial dilutions of W3278 BsAb or human IgG4 isotype control antibody at 4° C. for 60 minutes. After incubation, cells were washed twice with cold 1% BSA/1×PBS and Alexa Fluor647 conjugated Goat anti-human IgG Fc (Jackson-109-605-098) was then added and incubated for 30 minutes at 4° C. After washing twice, the geometric mean fluorescence (MFI) of stained cells was measured using a FACS Canto II cytometer (BD Biosciences). Wells containing no antibody or fluorescent secondary antibody only were used to establish background fluorescence. The EC₅₀ values of cell binding were determined using GraphPad Prism 5 software (GraphPad Software, La Jolla, Calif.) with values calculated using a four-parameter non-linear regression analysis.

[6] = target: T1, CD20 on Raji cells (CD20+/CD3- cells); assay: flow cytometry on Raji cells (CD20+/CD3-)
Method: as §1

| Binder | T cell CD69 expression EC50 (Table 5B), CD4+/Raji [1] [pM] | T cell CD69 expression EC50 (Table 5B), CD8+/Raji [1] [pM] | CD4+ T cell IL-2 release EC50, with Raji cells [2] [pM] | CD4+ T cell TNF-a release EC50, with Raji cells [2] [pM] | T cell CD69 expression EC50 (Table 5A as titled), CD4+/Raji [3] [pM] | T cell CD69 expression EC50 (Table 5A as titled), CD8+/Raji [3] [pM] | cytotoxicity EC50, NAMALWA cells, CD8+ T cells as effectors [4] [pM] | cytotoxicity EC50, Raji cells, CD8+ T cells as effectors [4] [pM] | cytotoxicity EC50, Ramos cells, CD8+ T cells as effectors [4] [pM] | EC50 [5] [pM] | TOP MFI [5] [MFI] | EC50 [6] [pM] | TOP MFI [6] [MFI] |
| --- | --- | --- | --- | --- | --- | --- | --- | --- | --- | --- | --- | --- | --- |
| B1 | 0.2 | 0.4 | 11.4 | 13.5 | 0.6 | 0.8 | 46.8 | 0.52 | 1.25 |  |  |  |  |
| B2 |  |  |  |  |  |  |  |  |  | 26600 | 536 | 1300 | 55400 |
